Results reported in publication doi:10.1101/2024.06.06.597810 (bioRxiv, 2024).
Changes are numbered by the printed parent chain. In names and notes the source's numbering stands.

B1: S2P6 UCA VH M48I/S56H double mutant Fab (Fab, V domains shown)
VH: QVQLVQSGAEVKKPGASVKVSCKASGYTFTSYYMHWVRQAPGQGLEWIGIINPSGGHTSYAQKFQGRVTMTRDTSTSTVYMELSSLRSEDTAVYYCARGSPKGAFDYWGQGTLVTVSS
VL: not shown
notes: source: Expi293F, co-transfected, purified (IgG-CH1-XL beads)
B2: S2P6 UCA VH Y32Q/M48I/S56H triple mutant Fab (Fab, V domains shown)
VH: B1 VH with Y32Q
VL: not shown
notes: as for B1

Biological target: T1, Biotin-labeled BatCoV-BtkY72 stem helix peptide (Bat SARS-related coronavirus BtKY72 …, UniProt A0A3Q8AKM0, biotin (position not given))
T1 construct: source: synthetic peptide, bought: GenScript
Test: BLI
Conditions: both partners purified

Row | Binder | binding result
1 | B1 | binds
2 | B2 | binds
